Numbered stars: 1 amine (or outer) side, 2 acyl side, 3 side chain; on linkers, the order of the positions; unused ones are H or OH. Bridge positions count the residues as written; N and C are the ends. Square brackets hold non-standard residues; d marks the D form. Primed or numbered codes have the meaning given here. * marks the point of attachment. Ttds = 1,13-diamino-4,7,10-trioxatridecan-succinamic acid, O=C(CCC(=O)[*:2])NCCCOCCOCCOCCCN[*:1]; 3MeBn = 3-Methylbenzylidene (m-xylylene thioether bridge from α,α′-dibromo-m-xylene); N4Ac = 6-Carboxy-1,4,8,11-tetraazaundecane, an N4-chelator, NCCNCC(CNCCN)C(=O)*; DOTA = O=C(O)CN1CCN(CC(=O)O)CCN(CC(=O)*)CCN(CC(=O)O)CC1; mXylylene = c1cc(C[*:1])cc(C[*:2])c1; Nle = CCCC[C@H](N)C(=O)O; PEG6′ = not defined here; βAla = NCCC(=O)O
T1: recombinant human PREP (R&D systems, #4308-SE) (human, UniProt P48147 1-710)
T1 sequence: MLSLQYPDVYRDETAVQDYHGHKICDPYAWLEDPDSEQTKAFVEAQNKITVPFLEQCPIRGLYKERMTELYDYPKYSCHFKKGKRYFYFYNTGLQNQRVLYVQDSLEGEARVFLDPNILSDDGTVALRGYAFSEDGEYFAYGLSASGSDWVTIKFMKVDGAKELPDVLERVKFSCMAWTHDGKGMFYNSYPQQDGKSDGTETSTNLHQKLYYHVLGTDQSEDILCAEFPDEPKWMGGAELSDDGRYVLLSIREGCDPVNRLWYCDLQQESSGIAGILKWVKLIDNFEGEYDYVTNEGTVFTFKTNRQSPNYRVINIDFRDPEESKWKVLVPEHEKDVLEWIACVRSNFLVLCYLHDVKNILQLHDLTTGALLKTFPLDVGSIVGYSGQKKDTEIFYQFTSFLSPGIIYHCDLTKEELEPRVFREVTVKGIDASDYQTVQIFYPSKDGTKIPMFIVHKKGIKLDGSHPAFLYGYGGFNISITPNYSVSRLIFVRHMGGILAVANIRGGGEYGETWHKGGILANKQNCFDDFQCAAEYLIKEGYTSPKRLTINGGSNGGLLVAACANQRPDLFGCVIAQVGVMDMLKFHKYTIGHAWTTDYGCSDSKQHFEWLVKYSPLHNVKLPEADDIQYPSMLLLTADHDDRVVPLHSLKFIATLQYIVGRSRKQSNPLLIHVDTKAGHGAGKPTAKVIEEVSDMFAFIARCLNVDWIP


Experiments:
[1] = biological target: T1, recombinant human PREP (R&D systems, …); assay: cell-based or functional assay
[2] = biological target: Recombinant human DPP4 (R&D systems, #9168-SE) (human, UniProt P27487 29-766); assay: cell-based or functional assay
[3] = biological target: T2, Recombinant human FAP (R&D systems, #3715-SE) (human, UniProt Q12884 26-760); assay: SPR (Biacore T200), FAP captured on anti-FAP antibody, single cycle kinetics; B = pKD 7.1 to 8.0
T2 construct: bought; in SPR captured on immobilized anti-FAP antibody MAB3715; also called rhFAP; human recombinant FAP

[4] = biological target: T3, human fibroblast activating protein (FAP) on WI-38 fibroblasts (human, UniProt Q12884 1-760); assay: competitive FACS on WI-38 cells vs 3 nM Cy5-labeled peptide; pIC50 category C = 6.1-7.0
T3 construct: FAP-expressing human WI-38 fibroblasts (ECACC)

Chain of Recombinant human DPP4 (R&D systems, #9168-SE) (P27487 29-766 limits assumed): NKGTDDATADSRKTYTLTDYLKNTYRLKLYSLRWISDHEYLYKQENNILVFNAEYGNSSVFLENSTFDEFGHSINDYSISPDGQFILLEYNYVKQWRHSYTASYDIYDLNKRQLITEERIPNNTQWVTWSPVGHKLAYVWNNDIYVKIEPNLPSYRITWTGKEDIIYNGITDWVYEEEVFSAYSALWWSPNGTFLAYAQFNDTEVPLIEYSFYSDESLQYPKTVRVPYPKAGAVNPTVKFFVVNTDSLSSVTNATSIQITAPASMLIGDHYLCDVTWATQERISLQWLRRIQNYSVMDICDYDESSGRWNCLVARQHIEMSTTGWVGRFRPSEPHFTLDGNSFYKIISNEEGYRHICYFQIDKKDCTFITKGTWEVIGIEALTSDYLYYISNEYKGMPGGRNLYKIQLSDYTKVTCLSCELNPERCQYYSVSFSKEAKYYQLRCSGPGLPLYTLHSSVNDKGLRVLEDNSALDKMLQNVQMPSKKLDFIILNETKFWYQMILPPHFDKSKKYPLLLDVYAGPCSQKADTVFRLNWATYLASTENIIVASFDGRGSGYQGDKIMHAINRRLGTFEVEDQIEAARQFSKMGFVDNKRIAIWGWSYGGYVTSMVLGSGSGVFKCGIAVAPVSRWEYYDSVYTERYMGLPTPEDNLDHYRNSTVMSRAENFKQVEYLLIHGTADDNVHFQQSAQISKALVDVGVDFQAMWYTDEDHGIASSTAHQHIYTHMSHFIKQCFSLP

| pIC50 (PREP) [1] [pIC50] | pIC50 (DPP4) [2] [pIC50] | pKD [3] [pkd] | pIC50 [4] [pic50] | Binder |
| --- | --- | --- | --- | --- |
| 6.2 | < 6 | 7.1 to 8 | – | {DOTA}-[Ttds][Nle]CPPTEFC-NH2 (linker 3-9 via mXylylene; SMILES CCCC[C@H](NC(=O)CCC(=O)NCCCOCCOCCOCCCNC(=O)CN1CCN(CC(=O)O)CCN(CC(=O)O)CCN(CC(=O)O)CC1)C(=O)N[C@H]1CSCc2cccc(c2)CSC[C@@H](C(N)=O)NC(=O)[C@H](Cc2ccccc2)NC(=O)[C@H](CCC(=O)O)NC(=O)[C@H]([C@@H](C)O)NC(=O)[C@@H]2CCCN2C(=O)[C@@H]2CCCN2C1=O, also called 3BP-3319) [DOTA-Ttds-Nle-[Cys(3MeBn)-Pro-Pro-Thr-Glu-Phe-Cys]-NH2] |
| – | – | – | 6.1 to 7 | {N4Ac-PEG6′-βAla}-[Nle]CPPTEFC-OH (linker 2-8 via 3MeBn, also called 3BP-4779) [N4Ac-PEG6-Bal-Nle-[C(3MeBn)-PPTEFC]-OH] |

Source: US20230212549A1 (3B PHARMACEUTICALS, published 2023)
